Results: patent US7592168B2, “Cephalosporin C acylase mutant and method for preparing 7-ACA using same” (Sandoz AG, priority 2003, dated 2009)

Substrate: [H][C@]12SCC(COC(C)=O)=C(C(=O)O)N1C(=O)[C@H]2NC(=O)CCC[C@@H](N)C(=O)O
Experiment: CPC hydrolysis kinetics (Lineweaver-Burk plot), wild-type CPC acylase AcyII
Type: biochemical, Pseudomonas sp. SE83
Conditions: other: substrate CPC, purified enzyme, 0.1 M Tris-HCl pH 8.0, 37° C.
Procedure: The enzyme activity of CPC acylase mutant to CPC was measured according to the method described by Park et al. with minor modifications as follows (Park, et al., Kor. J. Appl. Microbiol. Biotechnol. 23: 559-564, 1995). A substrate solution was prepared by dissolving CPC (purity 74.2%; CJ Corp., Korea) in 0.1 M Tris-HCl buffer solution (pH 8.0) at a concentration of 20 mg/ml and adjusting pH to 8 with 1 N NaOH. 20 μl of the CPC solution was mixed with 20 μl of the crude enzyme solution prepared above and the reaction mixture was incubated at 37° C. for 5 min. After the reaction, the mixture (200 μl) of 50 mM NaOH and 20% glacial acetic acid (1:2) was added thereto to stop the reaction. 200 μl of the supernatant recovered from the reaction mixture by centrifugation was mixed with 40 μl of 0.5% (w/v) PDAB (p-dimethylaminobenzaldehyde; Sigma, USA) dissolved in a methanol and the reaction mixture was incubated at 37° C. for 10 min. After the reaction, the absorbance of reaction mixture was measured at 415 nm and quantified by comparing with a calibration curve of standard material. At this time, 1 unit has been defined as the amount of enzyme capable to produce 1 μmole of 7-ACA from CPC per minute. Meanwhile, the specific activity of CPC acylase mutant for CPC was determined by measuring the amount of protein remaining in the enzyme solution according to the method described by Bradford (Bradford, M., Anal. Biochem. 72: 248-254, 1976) and representing it as an active unit corresponding to 1 mg of protein. The reactivity of CPC acylase mutant to CPC was determined by the following steps of adding the same amount of protein to a reaction mixture, performing an enzyme reaction for a fixed time, measuring the amount of 7-ACA produced in the reaction mixture, and representing it as a relative value. The end-product inhibition by 7-ACA was determined by adding a protein corresponding to the same active unit to a reaction mixture, performing an enzyme reaction for a fixed time; measuring the amount of 7-ACA produced in the reaction mixture, and representing it as a relative value. […]

B1: Pseudomonas sp. SE83 CPC acylase AcyII, wild type, SEQ ID NO: 2 (alpha-subunit SEQ ID NO: 4, beta-subunit SEQ ID NO: 5) (Pseudomonas sp. SE83) (protein)
chain 1: TMAAKTDREALQAALPPLSGSLSIPGLSAPVRVQRDGWGIPHIKASGEADAYRALGFVHAQDRLFQMELTRRKALGRAAEWLGAEAAEADILVRRLGMEKVCRRDFEALGAEAKDMLRAYVAGVNAFLASGAPLPIEYGLLGAEPEPWEPWHSIAVMRRLGLLMGSVWFKLWRMLALPVVGAANALKLRYDDGGQDLLCIPPGVEAERLEADLAALRPAVDALLKAMGG
chain 2: SNNWAVAPGRTATGRPILAGDPHRVFEIPGMYAQHHLACDRFDMIGLTVPGVPGFPHFAHNGKVAYCVTHAFMDIHDLYLEQFAEDGRTARFGNEFEPVAWRRDRIAVRGGADREFDIVETRHGPVIAGDPLEGAALTLRSVQFAETDLSFDCLTRMPGASTVAQLYDATRGWGLIDHNLVAGDVAGSIGHLVRARVPSRPRENGWLPVPGWSGEHEWRGWIPHEAMPRVIDPPGGLIVTANNRVVADDHPDYLCTDCHPPYRAERIMERLVASPAFAVDDAAAIHADTLSPHVGLLRARLEALGIQGSLPAEELRQTLIAWDGRMDAGSQAASAYNAFRRALTRLVTARSGLEQAIAHPFAAVPPGVSPQGQVWWAVPTLLRNDDAGMLKGWSWDEALSEALSVATQNLTGRGWGEEHRPRFTHPLSAQFPAWAALLNPVSRPIGGDGDTVLANGLVPSAGPEATYGALSRYVFDVGNWDNSRWVVFHGASGHPASPHYADQNAPWSDCAMVPMLYSWDRIAAEAVTSQELVPA
notes: made in house; host or cells: E. coli MC1061
Km: 50 mM
kcat: 0.9 s⁻¹
kcat/Km: 20 M⁻¹ s⁻¹
